Positions count from the first letter of the chain named. Names and notes keep the numbering of the source.
T1: human hepcidin (mature, 25 amino acids) (human, mono-biotinylated in the ELISAs and on the KinExA beads (site not stated); unlabelled in solution and on the BIAcore chip)
T1 construct: the form is named in each assay field; also called rhuHepc; rhHepc
T1 peptide: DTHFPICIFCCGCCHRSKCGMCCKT

B1: antibody 15E1 (wild type) (antibody, V domains shown)
VH: QVQLVESGGGVVQPGRSLRLSCAASGFTFSSYGMHWVRQAPGKGLEWVAVIWYAESNKYYADSVKGRFTISRDNSKNTLYLQMNSLRAEDTAVYYCARAQEGIAPDAFDIWGQGTMVTVSS
VL: SYELTQPPSVSVSPGQTATITCSGDKLGERYACWYQQRPGQSPVLVIYQDSKRPSGIPERFSGSNSGNTATLTISGTQAMDEADYFCQAWYSSTNVLFGGGTKLTVL
notes: Human antibody
B2: 15E1 A89H (antibody, V domains shown)
VH: B1 VH
VL: B1 VL with A89H
notes: Histidine mutant of 15E1, transiently expressed in 293-6E cells; constant regions as in wild-type 15E1; also called A89H (light chain)
B3: 15E1 A99H (antibody, V domains shown)
VH: B1 VH with A99H
VL: B1 VL
notes: Histidine mutant of 15E1, transiently expressed in 293-6E cells; constant regions as in wild-type 15E1; also called A99H (heavy chain)
B4: 15E1 A99H A107H (antibody, V domains shown)
VH: B1 VH with A99H, A107H
VL: B1 VL
notes: Double histidine mutant of 15E1; constant regions as in wild-type 15E1; also called A107H (heavy chain)/A99H (heavy chain)
B5: 15E1 A107H (antibody, V domains shown)
VH: B1 VH with A107H
VL: B1 VL
notes: Histidine mutant of 15E1, transiently expressed in 293-6E cells; constant regions as in wild-type 15E1; also called A107H (heavy chain)
B6: 15E1 A107H A89H (antibody, V domains shown)
VH: B1 VH with A107H
VL: B1 VL with A89H
notes: Double histidine mutant of 15E1 (one change in each chain); constant regions as in wild-type 15E1; also called A107H (heavy chain)/A89H (light chain)
B7: 15E1 A107H L27H (antibody, V domains shown)
VH: B1 VH with A107H
VL: B1 VL with L27H
notes: Double histidine mutant of 15E1 (one change in each chain); constant regions as in wild-type 15E1; also called A107H (heavy chain)/L27H (light chain)
B8: 15E1 L27H (antibody, V domains shown)
VH: B1 VH
VL: B1 VL with L27H
notes: Histidine mutant of 15E1, transiently expressed in 293-6E cells; constant regions as in wild-type 15E1; also called L27H (light chain)
B9: 15E1 N57H (antibody, V domains shown)
VH: B1 VH with N57H
VL: B1 VL
notes: Histidine mutant of 15E1, transiently expressed in 293-6E cells; constant regions as in wild-type 15E1; also called N57H (heavy chain)
B10: 15E1 N57H A107H (antibody, V domains shown)
VH: B1 VH with N57H, A107H
VL: B1 VL
notes: Double histidine mutant of 15E1; constant regions as in wild-type 15E1; also called A107H (heavy chain)/N57H (heavy chain)
B11: 15E1 W52H (antibody, V domains shown)
VH: B1 VH with W52H
VL: B1 VL
notes: Histidine mutant of 15E1, transiently expressed in 293-6E cells; constant regions as in wild-type 15E1; also called W52H (heavy chain)
B12: antibody 26F11 (antibody, V domains shown)
VH: B1 VH with S31N, A54V, E55G, I103M
VL: B1 VL with T19S, L27M, R38K, V44I, S51T, F86Y, L97V
notes: Human antibody
B13: antibody 19B8 (antibody, V domains shown)
VH: QVHLQQWGAGPLKPSETLSLTCAVYNGSFSGYYWSWIRQPPGKGLDWIGDINHSGNTKYNPSLKSRVTISVDTAKNQFSLKLSSVTAADTAVYYCARGDFWSGFDWFDPWGQGTLVTVSS
VL: QSALTQPASVSGSPGQSITISCTGTSSNVGTYKLVSWYQQHPGKAPKLMISEVSKRPSGLSNRFSGSKSGNTASLTISGLQAEDEADYYCSSYAGDSTLVFGGGTKLTVL
notes: Human antibody from Xenomouse IgG2 or IgG4 mice
B14: antibody 20E12 (antibody, V domains shown)
VH: B13 VH with H3Q, N26G, D46E, A74S, S83N
VL: B13 VL with T31S, K33N, I50L, N62S, N71D, S91C, D96S
notes: as for B13
B15: antibody 22F12 (antibody, V domains shown)
VH: B13 VH with H3Q, N26G, D46E, A74S, Q77H
VL: B13 VL with T31S, K33N, Q40K, S91C, D96S
notes: as for B13
B16: antibody 22H10 (antibody, V domains shown)
VH: B13 VH with D46E
VL: B13 VL with G43D, M49I, A86V
notes: as for B13
B17: antibody 23A11 (antibody, V domains shown)
VH: B13 VH with D46E, S83N
VL: B13 VL with V100I, F101V
notes: as for B13
B18: antibody 24E4 (antibody, V domains shown)
VH: QVQLVQSGAEVKEPGASVKVSCKASGYTFTSYGVSWVRQAPGQGLEWMGWISAYNGNTLYAQHLLGRVTMTTDTSTSTAYMELRSLRSDDTAVYYCAREDLGMGDYWGQGTLVTVSS
VL: QSVLTQPPSVSGAPGQRVTISCTGSSSNIGAGYGVYWYQQLPGTAPKLLIYGHNNRPSGVPDRFSGSKSDTSASLAITGLQAEDEADYYCQSYDSNLIGSVFGTGTKVTVL
notes: as for B13

Biological target: T1, human hepcidin (mature, 25 amino acids)
Test: ELISA, mono-biotinylated human hepcidin on Neutravidin plate, pH 6.0
Protocol: (§1) Differential pH binding of the antibodies listed above in Table 3 was then determined by ELISA. 50 μL of Neutravidin (Pierce) at 8 μg/mL in 1×PBS was coated upon a Nunc Maxisorp 384-well plate, and incubated at 37° C. for 1 hr. After blocking the wells with 0.1% BSA/PBS/0.05% Tween20 for 1 hour at room temperature, plates were washed six times with PBS/0.05% Tween20. 25 μL of mono-biotinylated hepcidin at 50 ng/mL in 0.1% BSA/PBS/0.05% Tween20 was added to the 384-well plate, and incubated at room temperature for 1 hour. The plates were next washed six times with PBS/0.05% Tween20. Starting hepcidin antibody concentrations were normalized to 1 μg/mL for pH 5.5 and 6.0 conditions and to 100 ng/mL for pH 7.4 conditions. The hepcidin antibodies were serially diluted 3-fold in PBS/1% NFDM pH 7.4 and 4-fold in PBS/1% NFDM pH 6.0 and 5.5. The dilutions and titrations were performed in polypropylene 96-well dilution plates, and then were transferred in duplicate to a Neutravidin-coated 384-well plate. The biotinylated hepcidin and antibodies were incubated for 2 hours at room temperature. The plate was next washed six times with PBS/0.05% Tween20. 25 μL it of goat anti-huIgG-horseradish peroxidase at a 1:7000 dilution in 0.1% BSA/PBS/0.05% Tween20 was next added to each well of the assay plate. The plate was finally washed six times in PBS/0.05% Tween20. Enhanced K-Blue 3,3′,5,5′-Tetramethylbenzidine (TMB) Substrate (Neogen) was added and the reaction stopped using 1 M H₃PO₄ after 10 minutes of incubation at room temperature. The absorption was measured at 450 nm on a plate reader. Binding data were analyzed by non-linear regression analysis (sigmoidal dose-response, variable slope) to generate EC₅₀ values using GraphPad Prism® software. […] Double combinations of these mutants were made.

Binder	EC50 [ng/mL]
B1	2.3
B2	10.6
B3	10.7
B4	5.5
B5	3.6
B6	34.7
B7	19.3
B8	6.5
B9	4
B10	75.6
B11	5.8

Biological target: T1, human hepcidin (mature, 25 amino acids)
Test: ELISA, mono-biotinylated human hepcidin on Neutravidin plate, pH 7.4
Protocol: as §1

Binder	EC50 [ng/mL]
B1	2.3
B2	5.4
B3	4.1
B4	3
B5	2
B6	6
B7	4.3
B8	4.5
B9	1.8
B10	7.3
B11	4.5

Biological target: T1, human hepcidin (mature, 25 amino acids)
Test: BIAcore, recombinant human hepcidin immobilised on a CM5 chip, 50 nM antibody bound at pH 7.4, dissociation buffers of pH 7.4, 6 and 5.5 (curves not labelled by pH)
Protocol: Off-rate analysis of dissociation at different pHs was also performed. A slow off-rate is expected to predict increased binding interaction over a longer period of time, while a faster off-rate is expected to predict decreased binding interaction. For example, a faster off-rate at lower pH is expected to predict greater release of antigen at lower pH. Solution equilibrium binding analysis was performed using BIAcore to study the off-rates of antibodies 1S1, 1S3, 2.7, 18B11, 23F11 and 26F11 with recombinant human hepcidin (SEQ ID NO: 9).
Immobilization of recombinant human hepcidin (rhuHepc) to a BIAcore sensor chip surface was performed according to manufacturer's instructions at a flow rate 10 μL/min of running buffer (DPBS: Dulbecco's Phosphate Buffer Salinel X, no CaCl or MgCl, with 0.005% Biacore surfactant P-20). The carboxylated matrix of the sensor chip was first activated with a 60 μL injection of a mixture containing 0.2 M EDC(N-ethyl-N-(dimethylamine-propyl)carbodiimide in water, from BIAcore) and 0.05M NHS (N-hydroxysuccinimide in water, from Biacore). 55 μL of recombinant human hepcidin (1 μg/ml in 10 mM Na-acetate pH4.0) was injected to immobilize onto the sensor chip. The excess reactive groups of the sensor chip were deactivated with an injection of 60 μL of ethanolamine (1.0M, from Biacore).
After rhuHepc was immobilized on the CM5 chip with low density, 50 nM of antibodies 1S1, 1S3, 2.7, 18B11, 23F11 and 26F11 were injected over and bound the rhuHepc surface at pH 7.4. Dissociation buffers with pH 7.4, pH6 and pH 5.5 were run over the bound surface. The dissociation curves were obtained.

Binder	binding result
B12	binds

Biological target: T1, human hepcidin (mature, 25 amino acids)
Test: antibody at 1:250 dilution; KinExA / BIAcore named in the paragraph

Binder	fold reduction in affinity at pH 6 compared to pH 7.4 [fold]
B13	~10
B14	~10
B15	~10
B16	~10
B17	~10
B18	~10

Biological target: T1, human hepcidin (mature, 25 amino acids)
Test: ELISA, mono-biotinylated human hepcidin on Neutravidin plate, pH 5.5
Protocol: as §1

Binder	EC50 [ng/mL]
B1	2.3
B2	12
B3	29.1
B4	16.1
B5	3.7
B7	316
B8	8
B9	3.2
B11	17

Biological target: T1, human hepcidin (mature, 25 amino acids)
Test: KinExA solution equilibrium, human hepcidin-coated beads
Protocol: SA-Sepharose beads were pre-coated with biotinylated human hepcidin (SEQ ID NO: 9) and blocked with BSA according to manufacturer's instructions. Antibodies and hepcidin were diluted in PBS/0.1% BSA/0.05% NaN₃ buffer. Fixed concentrations of antibodies 15E1, 15E1 W52H, 15E1 A99H, 15E1 N521-1, 15E1 A107H and 18B11 were incubated with various concentrations of human hepcidin at room temperature for 8 hours before being run through the human hepcidin-coated beads. The amount of the bead-bound antibody was quantified by fluorescently (Cy5)-labeled goat anti-murine-IgG (H+L) antibody (Jackson Immuno Research, West Grove, Pa.). The binding signal is proportional to the concentration of free antibody at equilibrium. Dissociation equilibrium constant (KD) was obtained from nonlinear regression of the competition curves using a dual-curve one-site homogeneous binding model (KinExATM Pro software).

Binder	Kd [nM]
B1	0.037
B3	> 10
B5	0.031
B9	3

Biological target: T1, human hepcidin (mature, 25 amino acids)
Test: ELISA, mono-biotinylated human hepcidin on Neutravidin plate, pH 6.0 against pH 7.4
Protocol: as §1

Binder	fold increase in EC50 as the pH was lowered to 6.0 [fold]
B2	≥ 1.5
B3	≥ 1.5
B4	≥ 5.5
B5	≥ 1.5
B6	≥ 5.5
B7	≥ 5.5
B8	≥ 1.5
B9	≥ 1.5
B10	≥ 5.5
B11	≥ 1.5

From patent US20110150888A1 (Amgen, published 2011)
